Assay results reported in the nanobody polyreactivity screen of Harvey et al. (2022).

Assay: yeast display, Sf9 membrane polyspecificity reagent, FACS + sequencing; frameworks hold sequencing errors
In short: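 Synthetic nanobody libraries on Saccharomyces cerevisiae BJ5465 were galactose-induced for 36–48 hours, stained 1 hour at 4 °C with 10% biotinylated, detergent-solubilized Sf9 membrane reagent and enriched on streptavidin microbeads. FACS then separated cells into low and high (top ~1%) gates by anti-HA (expression) and streptavidin (reagent binding) fluorescence. Genes were colony-PCR amplified, MiSeq 2 × 250 sequenced and CDR-length filtered. A clone's polyreactivity label is that of its gate of origin.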

Row | Sequence | polyreactivity (PSR sort gate)
1 | QVQLVESGGGLVQAGGSLRLSCAASGRTFEYNGMGWYSQAPGKEWELVAAITRGGSTYYADSVKGRFTISRDNAKNTVYLQMNSLKPEDTAVYYCAAVVGWSRYKWLEYWGQGTQVTVSS | low polyreactivity
2 | QVQLVESGGGLVQAGGSLRLSCAASGRTFFDYVMGWYRQAPGKERELVAAISTSGTSTYYADSVKGRFTISRDNAKNTVYLHMNSLKPEDTAVYYCAAGNYLYSYGYGYWGQGTQVTVSS | high polyreactivity
3 | QVQLVESGGGLVQAGGSLRLSCAASGRTFFENAKGWYRQAPGKEREFVAAISYNGGSTYYADSVKGRFTISRDNAKNTVYLQMNSLKPEDTAVYYCAADPNYGYDYWGQGTQVTVSS | low polyreactivity
4 | QVQLVESGGGLVQAGGSLRLSCAASGRTFFFNAMGWYRQAPGKERELVARITWSGGSTYYADSVKGRFTISRDNAKNTVYLQMNSLKPEDTAVYYCNTRRFPYDGIEHDYWGQGTQVTVSS | low polyreactivity
5 | QVQLVESGGGLVQAGGSLRLSCAASGRTFFGNAKGWYRQAPGKERELVAAISWRGGSTYYADSVKGRFTISRDNAKKTVYLQMNSLKPEDTAVYYCATGRYGYGYWGQGTQVTVSS | high polyreactivity
6 | QVQLVESGGGLVQAGGSLRLSCAASGRTFFGNAMGWYRQAPGKERELVAVISQGGGSTYYADSVKGRFTISRDNAKNTVYLQMNSLKPEDTAVYYCAKRYPHFGSGQLGGTYNYWGQGTQVTVSS | low polyreactivity
7 | QVQLVESGGGLVQAGGSLRLSCAASGRTFFGYAMGWCRQARGKEREFVAAISGSGGSTYYADSVKGRFTISRDYAKNTVYFKMNSLKPEDTAVYYCNAEYWGEYYYFGQGTQVTVSS | low polyreactivity
8 | QVQLVESGGGLVQAGGSLRLSCAASGRTFFGYAMGWYRQAPGKERELVAAITTSGGSTYYADSVKGRFTISRDNAKNTVYLQMNSLKPEDTAVYYCAARAYYGYYYWGQGTQVTVSS | low polyreactivity
9 | QVQLVESGGGLVQAGGSLRLSCAASGRTFFIYAMGWYRQAPGKERELVAAISNGGSTNYADSVKGRFTISRDYAKNTVYLQMISLKPEDTAVYYCAAQYIGNLRGVFHYEFDWGQGTQVTVSS | high polyreactivity
10 | QVQLVESGGGLVQAGGSLRLSCAASGRTFFLYAMGWYRQAPGKERELVAAITDGGSITYYADSVKGRFTISRDNAKNTVYLQMNSLKPEDTAVYYCAAEYWHVYDGDYWGYDYWGQGTQVTVSS | high polyreactivity
11 | QVQLVESGGGLVQAGGSLRLSCAASGRTFFPYAMGWYRQAPAKEREFVAAITKTDDSTYYADSVKGRFTISRDNAKNTVYLQMNSLKPEDTAVYYCNAGDTQIRFYYWGQGTQVTVSS | low polyreactivity
12 | QVQLVESGGGLVQAGGSLRLSCAASGRTFFPYAMGWYRQAPGKEREFVAAITKTDDSTYYADSVKGRFTISRDTSKNTVYLQMNSLKPEDTAVYYCNAGDTQMRFYYGGQGTQVTVSS | low polyreactivity
13 | QVQLVESGGGLVQAGGSLRLSCAASGRTFFPYAMGWYRQAPGKERELVAAISFRGGRTYYADSVKGRFTISRDNAKNTVYLQMNSLKPEDTAVYYCNKLGTRVYEMDYWGQGTQVTVSS | high polyreactivity
14 | QVQLVESGGGLVQAGGSLRLSCAASGRTFFQYAMGWYRQPPGKARELVAAIRWSDSTYYADSVKGRFTISRDNAKNTVYLQMNSLKPADTAVYYCAAPRVSQYSTKKYDYWGQGTQVTVSS | low polyreactivity
15 | QVQLVESGGGLVQAGGSLRLSCAASGRTFFRYAMGWYRQAPGKERELVAAISSRGGSTYYADSVKGRFTISRDNAKNTVYLQMNSLKPEDTAVYYCNAAAFINFILYDYWGQGTQVTVSS | high polyreactivity
16 | QVQLVESGGGLVQAGGSLRLSCAASGRTFFRYAMGWYRQAPGKERELVADISKGGGSTYYADSVKGRFTISRDNAKNTVYLQMNSLKPEDTAVYYCAADQYYERDNFGAERYYWGQGTQVTVSS | high polyreactivity
17 | QVQLVESGGGLVQAGGSLRLSCAASGRTFFSFNAMGWYRQAPGKERELVAAIDGDGGITYYADSVKGRFTISRDNAKNTVYLQMNSLKPEDTAVYYCAAETLFSYAGEDDYWGQGTQVTVSS | low polyreactivity
